Among the data in US20130101549A1 (Biogen, published 2013) are binding result and EC50 values, retold here.

For one experiment, the target named is T1, murine HER2 on CHO cells (mouse, UniProt P70424 23-1256).
T1 construct: whole, on cells; also called mHER2/ErbB2; murine Her2-CHO
Description: FACS on CHO cells expressing murine HER2.

In the next experiment the target is T2, EGFR on MDA-MB-468 cells (UniProt P00533 25-1210, limits assumed).
T2 construct: whole, on cells; also called MDA-MB-468 tumor cell line (EGFR+, HER2-)
Description: FACS on MDA-MB-468 cells (EGFR+, HER2-).

Experiment [1] deals with T3, human HER2/ErbB2 on cells (human, UniProt P04626 23-1255).
T3 construct: whole, on cells; also called hHER2/ErbB2; wild type HER2/ErbB
Description: flow cytometry on CHO cells expressing human HER2. Here is the method:
CHO cells (Chinese Hamster Ovary cells) stably transfected with hHER2 expression vector and selected in G418 containing medium. G418 resistant clones were pooled and split 24 hours prior to the setup of the assay to obtain 70% confluent monolayer. Routinely, CHO cell line was maintained within 20 passages. Cells were lifted with cell dissociation buffer (Gibco catalog #13151-014), counted, washed and adjusted to 1×10⁶ cells/ml and one ml of cells were then added to each tube (12×75 mm tube Falcon catalog #352054). Cells were pelleted and supernatant removed by centrifugation at 1200 rpm for 5 min and 100 μl of diluted antibodies were then added to the cell pellet. Purified Fabs were tested at a starting concentration of either 210 or 60 μg/ml with 1:3 dilutions in FACS buffer, down to 0.001 μg/ml. FACS buffer used throughout the assay was PBS (without Ca^{+±}/Mg^{+±}) containing 1% BSA (Sigma catalog #A-7906) and 0.1% Sodium Azide (Sigma catalog #S2002). Samples were allowed to incubate on ice for 1 hour and 15 minutes then were washed with 2 ml FACS buffer and centrifuged at 1200 rpm for 5 minutes at 4° C. The supernatant was aspirated and 100 μl of the secondary detection antibody was added to each corresponding tube in FACS buffer. Samples were then incubated for 30 minutes on ice, in the dark. Cells were washed as described above, then, re-suspended in 250 μl FACS buffer per tube/sample.
A full titration was performed on MCF7 and SKBR3 tumor cell lines, and human Her2-CHO and murine Her2-CHO cell lines in order to calculate an approximate EC50 (data not shown, see summary in Table 1).

A further experiment addresses T4, Her2-Fc D1-D2-D3 (MR068).
T4 construct: also called ErbB2-Fc Domains 1-3
Description: ELISA, HER2-Fc construct captured by anti-huFc, Fab from 1 ug/ml in 5-fold steps, HRP anti-kappa/lambda. Here is the method: (§1) Nunc Maxisorp ELISA plates were coated with 5 ug/ml rabbit pAbs anti-human Fc gamma in PBS overnight at 4 degrees. Plates were washed one time with PBST (PBS, 0.05% tween 20) and blocked with 1% BSA in PBS for one hour at room temperature. Plates were washed one time with PBST and incubated with 1 ug/ml HER2-Fc fusion protein for one hour. Plates were washed three times with PBST and dilutions of Fab (four 5-fold serial dilutions, starting at 1 ug/ml) in block were added and incubated for ninety minutes. Plates were washed three times with PBST and incubated with 1:2,000 HRP-labelled goat anti-human kappa (Southern Biotech cat#2060-05) and HRP-labelled goat anti-human lambda (Southern Biotech cat#2070-05) in block for one hour at room temperature. Plates were washed three times with PBST, developed with TMB solution for 5 minutes, and stopped with equal volume 1 N H₂SO₄. Absorbance values were read at 450 nm.

For experiment [2], the target named is T5, Her2-Fc D1-D2-D3-D4 (MR069).
T5 construct: made in house, kept apart from the R&D Systems HER2-Fc; also called ErbB2-Fc full length ECD
The experiment is described as above. Here is the method:
as §1

Another experiment has as its target T6, Her2-Fc D1 (MR066).
T6 construct: also called ErbB2-Fc Domain 1
T6 chain: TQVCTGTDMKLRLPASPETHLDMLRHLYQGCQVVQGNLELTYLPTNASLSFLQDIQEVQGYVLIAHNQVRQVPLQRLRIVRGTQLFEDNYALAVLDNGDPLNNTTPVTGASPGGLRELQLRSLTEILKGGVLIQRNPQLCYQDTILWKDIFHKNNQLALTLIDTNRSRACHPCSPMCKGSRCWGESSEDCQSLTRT
The description is as above. The protocol: as §1

The target in the next experiment is T7, Her2-Fc D1-D2 (MR067).
T7 construct: also called ErbB2-Fc Domains 1-2
T7 chain: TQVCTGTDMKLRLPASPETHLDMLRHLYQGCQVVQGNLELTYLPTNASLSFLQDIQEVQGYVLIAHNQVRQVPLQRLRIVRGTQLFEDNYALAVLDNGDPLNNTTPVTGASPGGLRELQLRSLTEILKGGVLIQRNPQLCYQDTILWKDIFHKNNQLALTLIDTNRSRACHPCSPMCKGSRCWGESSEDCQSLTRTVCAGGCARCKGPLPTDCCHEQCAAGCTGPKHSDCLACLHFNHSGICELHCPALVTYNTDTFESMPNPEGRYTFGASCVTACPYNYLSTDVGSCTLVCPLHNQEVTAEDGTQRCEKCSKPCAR
The experiment is described as above. Here is the method: as §1

B1: BIIB67F11 Fab (Fab, V domains shown)
VH: EVQLLESGGGLVQPGGSLRLSCAASGFTFSNYYMMWVRQAPGKGLEWVSVIGSSGGMTNYADSVKGRFTISRDNSKNTLYLQMNSLRAEDTAVYYCARGYPTGYYDSSGWVYSYYGIDVWGQGTTVTVSS
VL: DIQMTQSPSSLSASIGDRVTITCQASQDTDNRLHWYQQKSGRAPKLLIYDAVNLKRGVPSRFRGSGSGTNFILTITNLQPEDMATYFCQHSDGLSLAFGGGTKLEIK
notes: Soluble human Fab from a naive phagemid Fab library
B1: the binding result is recorded as “no binding” with murine HER2 on CHO cells; “no binding” in the experiment with EGFR on MDA-MB-468 cells; “binds” in the experiment with Her2-Fc D1-D2-D3 (MR068); “binds” in experiment [2]; “binds” with Her2-Fc D1 (MR066); “binds” with Her2-Fc D1-D2 (MR067). The same molecule yielded an EC50 in experiment [1] of 7 nM.

B2: BIIB65C10 Fab (Fab, V domains shown)
VH: EVQLLESGGGLVQPGGSLRLSCAASGFTFSYYPMMWVRQAPGKGLEWVSSIWPSGGFTKYADSVKGRFTISRDNSKNTLYLQMNSLRAEDTATYYCARVSSSSWYGYLYWGQGTLVTVSS
VL: not shown
notes: as for B1
As for B2, the binding result is “no binding” in the experiment with murine HER2 on CHO cells; “no binding” with EGFR on MDA-MB-468 cells; “binds” with Her2-Fc D1-D2-D3 (MR068); “binds” in experiment [2]; “no binding (tested: 1 ug/ml)” with Her2-Fc D1 (MR066); “binds” with Her2-Fc D1-D2 (MR067). Moreover, the concentration for a half-maximal effect (EC50) in experiment [1] came out at 6 nM.

B3: BIIB69A09 Fab (Fab, V domains shown)
VH: EVQLLESGGGLVQPGGSLRLSCAASGFTFSRYNMWWVRQAPGKGLEWVSVIRSSGGYTGYADSVKGRFTISRDNSKNTLYLQMNSLRAEDTAVYYCARWNSGYSYWDYYYGMDVWGQGTTVTVSS
VL: DIQMTQSPSSLSASVGDRVTITCRASQSISSYLNWYQQKPGKAPKLLIYAASSLQSGVPSRFSGSGSGTDFTLTISSLQPEDFATYYCQQFNTYPITFGPGTKVDIK
notes: as for B1
Regarding B3, the binding result in the experiment with murine HER2 on CHO cells is reported as “no binding”; with EGFR on MDA-MB-468 cells, “no binding”; with Her2-Fc D1-D2-D3 (MR068), “binds”; in experiment [2], “binds”; with Her2-Fc D1 (MR066), “binds”; in the experiment with Her2-Fc D1-D2 (MR067), “binds”. This molecule also gave an EC50 in experiment [1] of 2 nM.

B4: BIIB66A12 Fab (Fab, V domains shown)
VH: EVQLLESGGGLVQPGGSLRLSCAASGFTFSMYSMQWVRQAPGKGLEWVSVIGSSGGQTGYADSVKGRFTISRDNSKNTLYLQMNSLRAEDTAVYYCARVRDYYGSGSYYLDPWGQGTLVTVSS
VL: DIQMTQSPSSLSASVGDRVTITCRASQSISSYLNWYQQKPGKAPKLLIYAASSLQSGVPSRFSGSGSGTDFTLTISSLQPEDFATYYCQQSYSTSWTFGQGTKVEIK
notes: as for B1
For the molecule B4, the binding result in the experiment with murine HER2 on CHO cells is “no binding”; with EGFR on MDA-MB-468 cells, “no binding”; with Her2-Fc D1-D2-D3 (MR068), “binds”; in experiment [2], “binds”; with Her2-Fc D1 (MR066), “no binding (tested: 1 ug/ml)”; in the experiment with Her2-Fc D1-D2 (MR067), “no binding (tested: 1 ug/ml)”. In experiment [1], this molecule returned an EC50 of 60 nM.

B5: BIIB67F10 Fab (Fab, V domains shown)
VH: EVQLLESGGGLVQPGGSLRLSCAASGFTFSPYMMVWVRQAPGKGLEWVSWISPSGGYTFYADSVKGRFTISRDNSKNTLYLQMNSLRAEDTAVYYCAYGTYPLTYWGQGTLVTVSS
VL: QSELTQTPSVSVSPGQTASITCSGDKLGDKYVSWFQLKPGQSPLLVIYQDSKWPSGIPERFSGSNSGNTATLTISGTQATDEADYYCQVWDISHVVFGGGTKLTVL
notes: as for B1
Turning to B5, the binding result is on record as “no binding” in the experiment with murine HER2 on CHO cells; “no binding” with EGFR on MDA-MB-468 cells; “binds” with Her2-Fc D1-D2-D3 (MR068); “binds” in experiment [2]; “binds” with Her2-Fc D1 (MR066); “binds” with Her2-Fc D1-D2 (MR067). For the same molecule, the EC50 in experiment [1] came out at 2 nM.

B6: BIIB65B03 Fab (Fab, V domains shown)
VH: EVQLLESGGGLVQPGGSLRLSCAASGFTFSWYRMNWVRQAPGKGLEWVSSIYSSGGPTNYADSVKGRFTISRDNSQNTLYLQMNSLRAEDTAVYYCTREKPDYYDSSGYLDYWGQGTLVTVSS
VL: DIQMTQSPGTLSLSPGERSTLSCRASQSVSSSYLAWYQQKPGQAPRLLIYGASSRATGIPDRFSGSGSGTDFTLTISRLEPEDFGVYYCHQYGRPPVFGPGTKVDIK
notes: as for B1
In the case of B6, the binding result with murine HER2 on CHO cells is “no binding”; with EGFR on MDA-MB-468 cells, “no binding”; in the experiment with Her2-Fc D1-D2-D3 (MR068) it was “binds”; in experiment [2], “binds”; with Her2-Fc D1 (MR066), “no binding (tested: 1 ug/ml)”; with Her2-Fc D1-D2 (MR067) it was “no binding (tested: 1 ug/ml)”. In experiment [1], this molecule registered an EC50 of 15 nM.

B7: BIIB66C01 Fab (Fab, V domains shown)
VH: EVQLLESGGGLVQPGGSLRLSCAASGFTFSWYSMSWVRQAPGKGLEWVSSISSSGGPTHYADSVKGRFTISRDNSKNTLYLQMNSLRAEDTAVYYCARDSSYSGTSWGQGTLVTVSS
VL: QYELTQPPSVSGTPGQRVTISCSGSSSNIGSEYVYWFQQLPGTAPRLLIYRNDQRPSGVPDRFSGSKSGTSASLAISGLRSEDETDYYCTTWDDSLSGPVFGGGTKLTVL
notes: as for B1
Regarding B7, the binding result with murine HER2 on CHO cells is listed as “no binding”; in the experiment with EGFR on MDA-MB-468 cells, “no binding”; in the experiment with Her2-Fc D1-D2-D3 (MR068), “binds”; in experiment [2], “binds”; with Her2-Fc D1 (MR066) it was “no binding (tested: 1 ug/ml)”; with Her2-Fc D1-D2 (MR067) it was “no binding (tested: 1 ug/ml)”. Also, in experiment [1], the EC50 worked out at 12 nM.

B8: BIIB65H09 Fab (Fab, V domains shown)
VH: EVQLLESGGGLVQPGGSLRLSCAASGFTFSWYSMWWVRQAPGKGLEWVSSIVSSGGQTRYADSVKGRFTISRDNSKNTLYLQMNSLRAEDTAVYYCARVKGYYYYIDVWGKGTTVTVSS
VL: DIQMTQSPGTLSLSPGERATLSCRASQSVDSSYLSWYQQKPGQAPRLLIYGASTRATGIPARFSGSGSGTDFTLTVSRLEPEDFAVYYCQQHGYSSRTFGQGTKVEIK
notes: as for B1
As for B8, the binding result in the experiment with murine HER2 on CHO cells was “no binding”; with EGFR on MDA-MB-468 cells it was “no binding”; in the experiment with Her2-Fc D1-D2-D3 (MR068), “binds”; in experiment [2], “binds”; with Her2-Fc D1 (MR066) it was “no binding (tested: 1 ug/ml)”; with Her2-Fc D1-D2 (MR067) it was “no binding (tested: 1 ug/ml)”. For the same molecule, the half-maximal effective concentration (EC50) in experiment [1] stood at 20 nM.
